The target of data set [1] is T1, L1 ORF1p (Homo sapiens (L1.3, Ta-1 subfamily of …, UniProt Q9UN81)). In words: EMSA.
The target in data set [2] is T1, L1 ORF1p. In words: filter binding.
The target in data set [3] is T1, L1 ORF1p. In words: filter binding. This is another data set of the same source.
Data set [4] concerns the molecule itself. In words: AUC.
For data set [5], the target named is T1, L1 ORF1p. In words: EMSA. The source holds these as a separate data set. In general terms: Mobility shift assays separate free from complexed probe on a gel.
Data set [6] has as its target T1, L1 ORF1p. In words: filter binding. The source holds these as a separate data set.
Data set [7] concerns the target T1, L1 ORF1p. In words: EMSA. The source holds these as a separate data set.
Data set [8] deals with the molecule itself. In words: AUC. The source holds these as a separate data set.
Data set [9] concerns the molecule itself. In words: AUC. This is another data set of the same source.
The target in data set [10] is T1, L1 ORF1p. In words: filter binding. This is another data set of the same source.

Read-outs that look alike come from different tables or passages of the source.

B1: d58_pT-b (ssDNA)
DNA: GAGAGATTTTTTTTTTTTTTTTTTTTTTTTTTTTTTTTTTTTTTTTTTTTTCCAGAGC
Turning to B1, in the data set with L1 ORF1p [1], the binding result is listed as “binds”.

As to GCGAGTTGATGTTAGACTGTGTACTTTTT (ssDNA) [d29_c], the binding signal in the data set with L1 ORF1p [2] is ~1 fold of mismatched duplex affinity.

B2: d60_c (ssDNA)
DNA: AGCGAGTTGATGTTAGACTGTGTACTTTTTGCGAGTTGATGTTAGACTGTGTACTTTTTA
Take B2: the “apparent K (half saturation)” value in the data set with L1 ORF1p [3] is approximately 1 nM.

B3: human L1 ORF1 protein (ORF1p), full length, expressed in insect cells (natural protein)
chain: GMGKKQNRKTGNSKTQSASPPPKERSSSPATEQSWMENDFDELREEGFRRSNYSELREDIQTKGKEVENFEKNLEECITRITNTEKCLKELMELKTKARELREECRSLRSRCDQLEERVSAMEDEMNEMKREGKFREKRIKRNEQSLQEIWDYVKRPNLRLIGVPESDVENGTKLENTLQDIIQENFPNLARQANVQIQEIQRTPQRYSSRRATPRHIIVRFTKVEMKEKMLRAAREKGRVTLKGKPIRLTADLSAETLQARREWGPIFNILKEKNFQPRISYPAKLSFISEGEIKYFIDKQMLRDFVTTRPALKELLKEALNMERNNRYQPLQNHAKM
Take B3: the “stoichiometry N” value in “AUC [4]” came to 3.

For ACCUGCACAAUGUGCACAUGAAAAAAAAAA (ssRNA) [r30_3'utr-a], in the data set with L1 ORF1p [3], the “apparent K (half saturation)” value is approximately 1 nM.

B4: r60_U (ssRNA)
RNA: UUUUUUUUUUUUUUUUUUUUUUUUUUUUUUUUUUUUUUUUUUUUUUUUUUUUUUUUUUUU
For B4, the binding result in the data set with L1 ORF1p [5] is listed as “binds”.

B5: d29:d29_c perfect duplex (dsDNA)
DNA 1: AAAAAGTACACAGTCTAACATCAACTCGC
DNA 2: GCGAGTTGATGTTAGACTGTGTACTTTTT
As to B5, the binding signal with L1 ORF1p [6] was ~8 fold lower affinity than mismatched duplex N10.

B6: d120_c (ssDNA)
DNA: AGCGAGTTGATGTTAGACTGTGTACTTTTTGCGAGTTGATGTTAGACTGTGTACTTTTTAAGCGAGTTGATGTTAGACTGTGTACTTTTTGCGAGTTGATGTTAGACTGTGTACTTTTTA
As for B6, the binding result in the data set with L1 ORF1p [7] is “binds”.

B7: M128p, N-terminal deletion mutant of human L1 ORF1p (residues 128-338) (domain or fragment)
chain: GMKREGKFREKRIKRNEQSLQEIWDYVKRPNLRLIGVPESDVENGTKLENTLQDIIQENFPNLARQANVQIQEIQRTPQRYSSRRATPRHIIVRFTKVEMKEKMLRAAREKGRVTLKGKPIRLTADLSAETLQARREWGPIFNILKEKNFQPRISYPAKLSFISEGEIKYFIDKQMLRDFVTTRPALKELLKEALNMERNNRYQPLQNHAKM
In “AUC [8]”, B7 showed a Kd of approximately 35 µM. In addition, in “AUC [9]”, the Kd was approximately 3.4 µM and the “stoichiometry N” value was 3.

B8: d60_orf1 (ssDNA)
DNA: GATCATGCAGGACAGTCGGATCGCAACCTGATTTACTGTGTCATATAGTACGTGATTCAG
Take B8: the binding result with L1 ORF1p [5] is listed as “binds”.

B9: d29:d29_cmm mismatched duplex (dsDNA)
DNA 1: AAAAAGTACACAGTCTAACATCAACTCGC
DNA 2: GCGAGTTGACGTCAGACCGTGCACTTTTT
As to B9, the binding signal with L1 ORF1p [10] was ~1 fold of ssDNA d29_c affinity.

B10: d53_pT-b (ssDNA)
DNA: GAGAGATTTTTTTTTTTTTTTTTTTTTTTTTTTTTTTTTTTTTTTTCCAGAGC
As to B10, in the data set with L1 ORF1p [5], the binding result is listed as “binds”.

The term stoichiometry N denotes the number of molecules, sites or subunits per partner or assembly. For orientation: Kd means a measure of binding affinity in units of concentration. Low values mean tighter binding, high ones weaker binding.

The values are drawn from article PMC3258132 (Nucleic Acids Research, 2011).
